pIC50: −log10 of the molar value. Read-outs that look alike come from different tables or passages of the source. Where a SMILES comes first, the peptide text is derived from it. Where no end group is shown, it is not given here. The star is where a group is joined. X2 = CCc1c2c(nc3ccc(OC(=O)[C@H]4CC[C@H](CNC(=O)CCCCCNC(=O)C5CCC(CN6C(=O)CC(*)C6=O)CC5)CC4)cc13)-c1cc3c(c(=O)n1C2)COC(=O)[C@]3(O)CC; X4 = CC[C@@]1(O)C(=O)OCc2c1cc1n(c2=O)Cc2cc3cc(OC(=O)[C@H]4CC[C@H](CNC(=O)C5CCC(CN6C(=O)CC(*)C6=O)CC5)CC4)ccc3nc2-1; X3 = CCc1c2c(nc3ccc(OC(=O)CCCCCNC(=O)C4CCC(CN5C(=O)CC(*)C5=O)CC4)cc13)-c1cc3c(c(=O)n1C2)COC(=O)[C@]3(O)CC
Assays:
[1] = Stability of conjugates in citrated plasma at 37° C. (half life time, HPLC fluorescence); type: in vitro ADME, human; conditions: human, plasma
Description: (§1) The stability of the conjugates was tested in citrated plasma (10% (v/v) sodium citrate buffer, 0.106M) from different species (see Table 1 below). The conjugates at 2.55 μM were incubated at 37° C. in plasma. Samples were analysed using the HPLC fluorescence method described below (see chromatographic equipment and conditions) following TFA/acetonitrile extraction and the amount of free camptothecin, analogs or derivatives thereof (e.g. SN38) released by the conjugates was measured.
(§2) Chromatographic equipment and conditions: 150 μL of each sample were placed in 1.5 mL micro-centrifuge tubes. 450 μL of 5% (v/v) TFA in H2O was added to each tube and the mixture was vortexed for 5 seconds. Samples were then centrifuged at 16000 g, 3 minutes at +4° C. 100 μL of supernatant were placed in 1.5 mL micro-centrifuge tubes. Methanol (100 μL) was then immediately added and vortexed for 5 seconds. Samples were then centrifuged at 16000 g, 3 minutes at room temperature. 150 μL of supernatant were recovered for HPLC analysis. Conjugates, metabolites and camptothecin derivative (i.e. SN38) were separated by high-performance liquid chromatography (HPLC; Agilent 1100 series equipped with a fluorescence detector) using a 4.6×100 mm ([…] particle size) Luna C18(2) column (Phenomenex ref. 00D-4251-E0, Le Pecq, France). The aqueous component of the mobile phase (A) was 0.1% (v/v) TFA in water. The organic modifier (B) was acetonitrile containing 0.1% (v/v) TFA. For the conjugate and its metabolites an elution gradient increasing linearly the proportion of B from 15 to 37% in 2 min, from 37 to 47% in 6 min, followed by 2 min at 90% was applied with a constant flow rate of 1.2 mL/min. The proportion of B was then returned to the initial condition for 3.0 min.
(§3) The half life time of conjugate corresponds to the time necessary to have 50% by mole of free camptothecin, analogs or derivatives thereof released by the conjugates of the invention. In human plasma, the half life time of conjugate DPV1047-linker #1-SN38 (less than 5 mins) was shorter than that of conjugate DPV1047-linker #2-SN38 (6-7 mins), which, in turn, was shorter than that of conjugate DPV1047-linker #3-SN38 (12 mins).
(§4) As in Example II, the stability of these conjugates was tested in either human or dog plasma. Following incubation at 37° C., samples were analyzed after a TFA acetonitrile extraction by the HPLC fluorescence method described in Example II. The in vitro cytotoxicity (IC50) of these compounds was also evaluated.

[2] = as above; type: in vitro ADME; conditions: dog
Description: as §1, §2, §3, §4

[3] = system: HCT 116 human epithelial colon carcinoma cells; test: cells; type: cell-based
Description: (§5) Cytotoxic evaluation was performed by seeded cells for 24 h prior to the addition of the therapeutic compound. Cells were incubated for 48 h (37° C.) with different dilutions of the therapeutic compound. Cell viability was then assessed using the WST-1 assay (Roche). The results are expressed as mean cytotoxic concentrations (IC50 value or molar concentration that inhibits 50% of cell viability) that were estimated from sigmoid regression, using Graph Pad Prism 3.02 software.
HCT 116 (ATCC #: CCL-247): human epithelial colon carcinoma cells. Cells were cultured in Mc Coy's 5a medium+1.5 mM L-glutamine and 10% fetal bovine serum. Cells were plated at a density of 8000 cells/well in 96-well plates.

[4] = system: NCI-H460 human epithelial lung carcinoma cells; test: In vitro cytotoxicity (WST-1 cell viability); type: cell-based
Description: as §5
NCI-H460 (ATCC#: HTB-177): human epithelial lung carcinoma cells. Cells were cultured in RPMI 1640+glutamax and 10% of fetal bovine serum. Cells were plated at a density of 10,000 cells/well in 96-well plates.

HT-29 tumors = test: Combination of DPV1047-BCH-SN38 with 5-FU or bevacizumab in the HT-29 tumor model; conditions: 5-FU 40 mg/kg i.v. or bevacizumab 2 mg/kg i.p.
Description: Mice were implanted with HT-29 tumors and treated by intraperitoneal administration (bevacizumab) or bolus intravenous injection (5-FU or DPV1047-BCH-SN38) at 10 μL/g. […] The T/C ratio was calculated following treatment with either bevacizumab, 5-FU or DPV1047-BCH-SN38. These T/C ratios were used to evaluate the expected T/C for combined treatment with bevacizumab and DPV1047-BCH-SN38, or 5-FU and DPV1047-BCH-SN38 (T/C of DPV1047-BCH-SN38×T/C of bevacizumab or 5-FU). […] The combination index of the two molecules was calculated by dividing the expected T/C by the observed T/C.

[5] = Stability of conjugates in citrated plasma at 37° C. (half life time, HPLC fluorescence); type: in vitro ADME; conditions: DPV1047-linker-SN38, 2.55 μM
Description: as §1, §2, §3

[6] = Table 14, 10-Hydroxycamptothecin conjugates, read-out: Human Plasma Half life time
[7] = Table 14, 10-Hydroxycamptothecin conjugates, read-out: Dog Plasma Half life time
[8] = line of DPV1047-BCH-SN38 12.5 μmol/kg
[9] = line of DPV1047-BCH-SN38 25 μmol/kg
[10] = DPV1047-linker-SN38, 2.55 μM, citrated plasma, read-out: Half life time, Human plasma
[11] = DPV1047-linker-SN38, 2.55 μM, citrated plasma, read-out: Half life time, Dog plasma
[12] = time to 50% by mole free SN38 released, read-out: Half life time, Mouse plasma

Compound `CC[C@H](C)[C@H](NC(=O)[C@H](CCCCN)NC(=O)[C@@H](NC(=O)[C@H](CCC(N)=O)NC(=O)[C@H](CCCNC(=N)N)NC(=O)[C@@H](N)CSC1CC(=O)N(CC2CCC(C(=O)NC[C@H]3CC[C@H](C(=O)Oc4ccc5nc6c(cc5c4)Cn4c-6cc5c(c4=O)COC(=O)[C@]5(O)CC)CC3)CC2)C1=O)[C@@H](C)CC)C(=O)N[C@@H](Cc1c[nH]c2ccccc12)C(=O)N[C@@H](Cc1ccccc1)C(=O)N[C@@H](CCC(N)=O)C(=O)N[C@@H](CC(N)=O)C(=O)N[C@@H](CCCNC(=N)N)C(=O)N[C@@H](CCCNC(=N)N)C(=O)N[C@@H](CCSC)C(=O)N[C@@H](CCCCN)C(=O)N[C@@H](Cc1c[nH]c2ccccc12)C(=O)N[C@@H](CCCCN)C(=O)N[C@@H](CCCCN)C(=O)O` (some centres unmarked) has a half-life [1, 6] of 32 min, a half-life [2, 7] of 110 min and a pIC50 ([3]; 48 h) of 6.71. The pIC50 ([4]; 48 h) was 6.79.

For `O=c1[nH]cc(F)c(=O)[nH]1` [5-FU, 5-fluorouracil, reference compound], the “Single treatment Reference drug T/C %” value (HT-29 tumors; [8]) was 90% and the “Single treatment Reference drug T/C %” value (HT-29 tumors; [9]) was 94%.

Compound `CC[C@@]1(O)C(=O)OCc2c1cc1n(c2=O)Cc2cc3cc(O)ccc3nc2-1` [10-Hydroxycamptothecin, reference compound] has a pIC50 ([3]; Homo sapiens, HCT-116, 48 h, read-out: Drug concentration that inhibits 50% of cell viability (IC50), HCT 116) of 7.19 and a pIC50 ([4]; Homo sapiens, NCI-H460, 48 h, read-out: Drug concentration that inhibits 50% of cell viability (IC50), NCI-H460) of 7.68.

With `CCc1c2c(nc3ccc(OC(=O)[C@H]4CC[C@H](CNC(=O)C5CCC(CN6C(=O)CC(SCC(N)C(=O)N[C@@H](C(=O)N[C@H](CCCCN)C(=O)N[C@H](CCCNC(=N)N)C(=O)NCC(=O)N[C@H](CC(C)C)C(=O)N[C@H](CCCCN)C(=O)N[C@H](CC(C)C)C(=O)N[C@H](CCCNC(=N)N)C(=O)N[C@H](Cc7c[nH]cn7)C(=O)N[C@@H](C(=O)N[C@H](CCCNC(=N)N)C(=O)N7CCC[C@@H]7C(=O)N[C@H](CCCNC(=N)N)C(=O)N[C@@H](C(=O)N[C@@H](C(=O)N[C@H](CCCNC(=N)N)C(=O)N[C@H](CCSC)C(=O)N[C@H](CC(=O)O)C(=O)N[C@@H](C(=O)O)C(C)C)[C@H](C)O)C(C)C)C(C)C)C(C)C)C6=O)CC5)CC4)cc13)-c1cc3c(c(=O)n1C2)COC(=O)[C@]3(O)CC` (some centres unmarked) [DPV1047(D)-linker #5-SN38] the half-life ([1]; Table 12, CPP-linker #5-SN38 conjugates incl. D conformation, read-out: Human Plasma Half life time) was 110 min, the half-life ([2]; Table 12, CPP-linker #5-SN38 conjugates incl. D conformation, read-out: Dog Plasma Half life time) was 165 min and the pIC50 ([3]; 48 h) was 7.64.

`CCc1c2c(nc3ccc(OC(=O)CCCCCNC(=O)C4CCC(CN5C(=O)CC(SC[C@H](N)C(=O)N[C@H](C(=O)N[C@@H](CCCCN)C(=O)N[C@@H](CCCNC(=N)N)C(=O)NCC(=O)N[C@@H](CC(C)C)C(=O)N[C@@H](CCCCN)C(=O)N[C@@H](CC(C)C)C(=O)N[C@@H](CCCNC(=N)N)C(=O)N[C@@H](Cc6c[nH]cn6)C(=O)N[C@H](C(=O)N[C@@H](CCCNC(=N)N)C(=O)N6CCC[C@H]6C(=O)N[C@@H](CCCNC(=N)N)C(=O)N[C@H](C(=O)N[C@H](C(=O)N[C@@H](CCCNC(=N)N)C(=O)N[C@@H](CCSC)C(=O)N[C@@H](CC(=O)O)C(=O)N[C@H](C(=O)O)C(C)C)[C@@H](C)O)C(C)C)C(C)C)C(C)C)C5=O)CC4)cc13)-c1cc3c(c(=O)n1C2)COC(=O)[C@]3(O)CC` (some centres unmarked) [DPV1047-linker #4-SN38] (H-C(X3)VKRGLKLRHVRPRVTRMDV-OH) showed a half-life [1, 10] of 40 min, a half-life [2, 11] of 105 min and a half-life [5, 12] of less than 3 min. The half-life ([5]; monkey) was 30 min and the half-life ([5]; rat) was 3 min.

With `CC[C@@]1(O)C(=O)OCc2c1cc1n(c2=O)Cc2cc3cc(OC(=O)[C@H]4CC[C@H](CNC(=O)C5CCC(CN6C(=O)CC(SC[C@H](N)C(=O)N[C@H](C(=O)N[C@@H](CCCCN)C(=O)N[C@@H](CCCNC(=N)N)C(=O)NCC(=O)N[C@@H](CC(C)C)C(=O)N[C@@H](CCCCN)C(=O)N[C@@H](CC(C)C)C(=O)N[C@@H](CCCNC(=N)N)C(=O)N[C@@H](Cc7c[nH]cn7)C(=O)N[C@H](C(=O)N[C@@H](CCCNC(=N)N)C(=O)N7CCC[C@H]7C(=O)N[C@@H](CCCNC(=N)N)C(=O)N[C@H](C(=O)N[C@H](C(=O)N[C@@H](CCCNC(=N)N)C(=O)N[C@@H](CCSC)C(=O)N[C@@H](CC(=O)O)C(=O)N[C@H](C(=O)O)C(C)C)[C@@H](C)O)C(C)C)C(C)C)C(C)C)C6=O)CC5)CC4)ccc3nc2-1` (some centres unmarked) [DPV1047-linker #5-10 Hydroxycamptothecin] (H-C(X4)VKRGLKLRHVRPRVTRMDV-OH; N-terminus and C-terminus assumed) the half-life [1, 6] was 214 min, the half-life [2, 7] was 180 min and the pIC50 ([3]; 48 h) was 6.73. For the same compound, the pIC50 ([4]; 48 h) was 6.95.

`CCc1c2c(nc3ccc(OC(=O)[C@H]4CC[C@H](CNC(=O)CCCCCNC(=O)C5CCC(CN6C(=O)CC(SC[C@H](N)C(=O)N[C@H](C(=O)N[C@@H](CCCCN)C(=O)N[C@@H](CCCNC(=N)N)C(=O)NCC(=O)N[C@@H](CC(C)C)C(=O)N[C@@H](CCCCN)C(=O)N[C@@H](CC(C)C)C(=O)N[C@@H](CCCNC(=N)N)C(=O)N[C@@H](Cc7c[nH]cn7)C(=O)N[C@H](C(=O)N[C@@H](CCCNC(=N)N)C(=O)N7CCC[C@H]7C(=O)N[C@@H](CCCNC(=N)N)C(=O)N[C@H](C(=O)N[C@H](C(=O)N[C@@H](CCCNC(=N)N)C(=O)N[C@@H](CCSC)C(=O)N[C@@H](CC(=O)O)C(=O)N[C@H](C(=O)O)C(C)C)[C@@H](C)O)C(C)C)C(C)C)C(C)C)C6=O)CC5)CC4)cc13)-c1cc3c(c(=O)n1C2)COC(=O)[C@]3(O)CC` (some centres unmarked) [DPV1047-linker #7-SN38] (H-C(X2)VKRGLKLRHVRPRVTRMDV-OH; N-terminus and C-terminus assumed) gave a half-life [1, 10] of 150 min, a half-life [2, 11] of 165 min and a half-life [5, 12] of less than 3 min. The half-life ([5]; monkey) was 90 min and the half-life ([5]; rat) was 9 min.

Compound “Tat-linker #7-10 Hydroxycamptothecin: Tat48-60 peptide coupled via linker #7 to 10-Hydroxycamptothecin (GRKKRRQRRRAHQ; also: coupled via linker #7 to 10-hydroxycamptothecin, site not given here; UniProt P04608 48-60, looked up, fragment)” has a pIC50 ([3]; Table 15, 48 h continuous exposure, mean of three independent experiments, read-out: Drug concentration that inhibits 50% of cell viability (IC50), HCT 116) of 6.80 and a pIC50 ([4]; Table 15, 48 h continuous exposure, mean of three independent experiments, read-out: Drug concentration that inhibits 50% of cell viability (IC50), NCI-H460) of 6.90.

For “bevacizumab: bevacizumab (Avastin®, Roche)”, the “Single treatment Reference drug T/C %” value (HT-29 tumors; [8]) was 67% and the “Single treatment Reference drug T/C %” value (HT-29 tumors; [9]) was 67%.

From patent publication US8410045B2, “Camptothecin-peptide conjugates and pharmaceutical compositions containing the same” (Drais Pharmaceuticals, Inc., priority 2006, dated 2013)
